Laboratory results from US20140378382A1.

Legend:
[1] = target: PTHR-1 (species and cells not stated for the assay) (Homo sapiens (Human)) (UniProt Q03431); assay: cell-based or functional assay
[2] = target: parathyroid hormone receptor-2 (PTHR-2); assay: cell-based or functional assay

Chain of PTHR-1 (species and cells not stated for the assay) (Homo sapiens (Human)) (Q03431 27-593 limits assumed, form in doubt): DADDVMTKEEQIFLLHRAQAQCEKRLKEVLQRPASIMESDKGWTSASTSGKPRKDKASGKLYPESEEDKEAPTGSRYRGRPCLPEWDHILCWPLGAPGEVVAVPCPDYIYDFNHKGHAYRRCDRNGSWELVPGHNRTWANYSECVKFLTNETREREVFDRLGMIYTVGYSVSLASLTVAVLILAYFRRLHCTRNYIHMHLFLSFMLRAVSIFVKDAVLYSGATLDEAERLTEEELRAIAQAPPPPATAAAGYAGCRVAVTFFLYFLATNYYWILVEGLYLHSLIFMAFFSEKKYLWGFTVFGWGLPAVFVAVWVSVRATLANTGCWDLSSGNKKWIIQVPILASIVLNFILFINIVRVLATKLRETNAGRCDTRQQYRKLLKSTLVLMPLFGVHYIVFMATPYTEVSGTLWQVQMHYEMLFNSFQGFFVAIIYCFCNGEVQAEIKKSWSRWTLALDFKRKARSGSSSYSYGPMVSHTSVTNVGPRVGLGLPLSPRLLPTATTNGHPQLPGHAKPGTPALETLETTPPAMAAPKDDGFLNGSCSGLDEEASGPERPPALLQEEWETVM

Row | cAMP response PTH1R/PTH2R [1] | cAMP response PTH2R/PTH1R [2] | Substance
1 | 27 | 0.04 | hPTHrP(1-36) (from UniProt P12272 37-72) (peptide)
2 | 0.01 | 165 | hTIP(1-39) (from UniProt Q96A98 62-100) (peptide)
